B1: MBP-tagged Mre11-C49 peptide (Mre11 C-terminal residues 644-692) [S. cerevisiae] / HisSUMO-tagged Mer2 [S. cerevisiae] (parent complex)
chain 1: SYGLLNGRKTKTKTRPAASTKTASRRGKGRASRTPKTDILGSLLAKKRK
chain 2: MVARGRTDEISTDVSEANSEHSLMITETSSPFRSIFSHSGKVANAGALEESDKQILEWAGKLELESMELRENSDKLIKVLNENSKTLCKSLNKFNQLLEQDAATNGNVKTLIKDLASQIENQLDKVSTAMLSKGDEKKTKSDSSYRQVLVEEISRYNSKITRHVTNKQHETEKSMRCTQEMLFNVGSQLEDVHKVLLSLSKDMHSLQTRQTALEMAFREKADHAYDRPDVSLNGTTLLHDMDEAHDKQRKKSVPPPRMMVTRSMKRRRSSSPTLSTSQNHNSEDNDDASHRLKRAARTIIPWEELRPDTLESEL

Variants of: B1
Assay: co-expression Ni-NTA pulldown, anti-MBP immunoblot quantification; co-expressed in E. coli; at least seven independent samples; parent: 1; read off a plot

Row | ratio to parent | Variant
1 | ~0.35 | chain 1 SYGLLNGRKTKTKTRPAASTKTASRRGKGRASRTPKTDIAGSALAKARK [chain 1 L40A, chain 1 L43A, chain 1 K47A]

Variants of: B1
Assay: as above
Remark: another data set of the same source

Row | ratio to parent | Variant
2 | ~0.26 | chain 2 MVARGRTDEISTDVSEANSEHSLMITETSSPFRSIFSHSGKVANAGALEASDKAILAWAGALELESMELRENSDKLIKVLNENSKTLCKSLNKFNQLLEQDAATNGNVKTLIKDLASQIENQLDKVSTAMLSKGDEKKTKSDSSYRQVLVEEISRYNSKITRHVTNKQHETEKSMRCTQEMLFNVGSQLEDVHKVLLSLSKDMHSLQTRQTALEMAFREKADHAYDRPDVSLNGTTLLHDMDEAHDKQRKKSVPPPRMMVTRSMKRRRSSSPTLSTSQNHNSEDNDDASHRLKRAARTIIPWEELRPDTLESEL [chain 2 E50A, chain 2 Q54A, chain 2 E57A, chain 2 K61A]
